We go through two molecules from PMC9604365 (2022).

Assay in all cases: ELISA
In one test the target is T1, integrin αvβ5 (Homo sapiens, UniProt P06756).
T1 chain 1: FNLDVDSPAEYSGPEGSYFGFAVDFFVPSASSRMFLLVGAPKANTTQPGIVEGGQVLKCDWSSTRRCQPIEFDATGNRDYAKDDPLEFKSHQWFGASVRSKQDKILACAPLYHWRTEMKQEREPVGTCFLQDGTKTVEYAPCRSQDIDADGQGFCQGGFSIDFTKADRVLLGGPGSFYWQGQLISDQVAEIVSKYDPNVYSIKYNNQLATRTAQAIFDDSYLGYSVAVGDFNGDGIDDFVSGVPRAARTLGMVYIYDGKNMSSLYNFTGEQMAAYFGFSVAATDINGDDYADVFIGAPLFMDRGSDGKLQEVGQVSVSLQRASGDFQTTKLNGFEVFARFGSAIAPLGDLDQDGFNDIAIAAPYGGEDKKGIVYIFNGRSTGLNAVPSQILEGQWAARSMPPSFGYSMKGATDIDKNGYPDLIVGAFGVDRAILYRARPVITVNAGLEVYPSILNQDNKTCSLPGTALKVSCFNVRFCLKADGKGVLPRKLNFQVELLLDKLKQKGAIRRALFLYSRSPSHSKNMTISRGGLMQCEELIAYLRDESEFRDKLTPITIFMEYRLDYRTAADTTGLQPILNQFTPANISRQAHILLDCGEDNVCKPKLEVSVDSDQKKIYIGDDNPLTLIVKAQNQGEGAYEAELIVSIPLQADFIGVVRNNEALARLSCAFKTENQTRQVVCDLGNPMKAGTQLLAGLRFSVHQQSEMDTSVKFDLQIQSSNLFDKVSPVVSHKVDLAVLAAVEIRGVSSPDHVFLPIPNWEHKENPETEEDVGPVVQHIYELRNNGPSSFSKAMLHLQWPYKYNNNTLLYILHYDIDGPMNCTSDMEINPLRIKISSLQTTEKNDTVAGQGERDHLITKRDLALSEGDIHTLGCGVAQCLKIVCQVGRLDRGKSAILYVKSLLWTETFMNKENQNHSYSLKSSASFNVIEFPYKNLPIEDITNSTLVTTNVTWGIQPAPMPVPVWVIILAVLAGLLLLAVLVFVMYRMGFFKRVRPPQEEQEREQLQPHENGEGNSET
T1 chain 2: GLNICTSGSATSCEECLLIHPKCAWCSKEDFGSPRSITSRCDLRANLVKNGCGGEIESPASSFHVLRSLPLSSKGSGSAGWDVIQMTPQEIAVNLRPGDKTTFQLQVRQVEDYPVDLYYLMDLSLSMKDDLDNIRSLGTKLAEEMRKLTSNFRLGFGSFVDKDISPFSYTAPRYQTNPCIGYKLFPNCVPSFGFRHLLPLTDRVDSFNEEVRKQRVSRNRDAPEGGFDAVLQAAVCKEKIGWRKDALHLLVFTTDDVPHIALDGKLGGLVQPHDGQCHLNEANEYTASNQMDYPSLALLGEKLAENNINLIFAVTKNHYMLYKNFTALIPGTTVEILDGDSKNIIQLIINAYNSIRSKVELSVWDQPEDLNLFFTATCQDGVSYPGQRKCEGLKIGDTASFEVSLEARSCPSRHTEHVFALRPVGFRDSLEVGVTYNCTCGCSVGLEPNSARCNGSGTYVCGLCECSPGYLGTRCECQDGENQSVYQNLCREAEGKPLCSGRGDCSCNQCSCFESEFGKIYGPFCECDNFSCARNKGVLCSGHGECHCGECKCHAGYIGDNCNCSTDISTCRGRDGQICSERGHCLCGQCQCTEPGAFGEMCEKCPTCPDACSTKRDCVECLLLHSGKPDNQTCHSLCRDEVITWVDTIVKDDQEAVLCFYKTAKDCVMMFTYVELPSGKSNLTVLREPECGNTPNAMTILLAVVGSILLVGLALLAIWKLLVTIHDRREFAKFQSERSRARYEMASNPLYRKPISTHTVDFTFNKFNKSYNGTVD

The next test concerns the target T2, integrin αvβ3 (Homo sapiens, UniProt P06756).
T2 chain 1: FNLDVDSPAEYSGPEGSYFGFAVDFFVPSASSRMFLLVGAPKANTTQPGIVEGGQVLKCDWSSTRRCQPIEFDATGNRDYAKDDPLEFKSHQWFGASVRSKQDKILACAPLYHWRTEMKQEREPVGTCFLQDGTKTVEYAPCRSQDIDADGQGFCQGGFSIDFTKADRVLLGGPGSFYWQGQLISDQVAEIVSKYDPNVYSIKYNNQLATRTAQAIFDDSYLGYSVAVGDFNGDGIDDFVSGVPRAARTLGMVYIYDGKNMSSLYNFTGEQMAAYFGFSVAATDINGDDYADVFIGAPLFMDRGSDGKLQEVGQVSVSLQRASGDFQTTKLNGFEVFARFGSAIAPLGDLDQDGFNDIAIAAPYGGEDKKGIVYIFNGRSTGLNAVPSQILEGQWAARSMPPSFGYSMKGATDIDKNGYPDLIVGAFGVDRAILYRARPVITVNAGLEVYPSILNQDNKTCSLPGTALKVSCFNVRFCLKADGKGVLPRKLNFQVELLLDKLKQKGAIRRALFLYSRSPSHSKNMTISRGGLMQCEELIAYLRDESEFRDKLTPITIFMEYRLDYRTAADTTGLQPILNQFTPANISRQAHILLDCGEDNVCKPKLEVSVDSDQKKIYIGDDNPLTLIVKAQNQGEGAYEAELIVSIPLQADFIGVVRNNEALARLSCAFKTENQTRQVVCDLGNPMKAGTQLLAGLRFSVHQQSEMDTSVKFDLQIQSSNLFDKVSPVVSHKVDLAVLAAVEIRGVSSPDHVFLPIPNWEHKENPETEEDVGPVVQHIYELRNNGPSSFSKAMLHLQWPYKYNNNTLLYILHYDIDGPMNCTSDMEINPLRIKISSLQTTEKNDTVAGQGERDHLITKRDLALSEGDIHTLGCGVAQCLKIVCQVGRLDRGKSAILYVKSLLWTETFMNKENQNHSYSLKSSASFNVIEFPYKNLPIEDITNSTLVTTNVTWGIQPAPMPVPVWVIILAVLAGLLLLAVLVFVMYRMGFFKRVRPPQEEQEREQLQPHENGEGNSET
T2 chain 2: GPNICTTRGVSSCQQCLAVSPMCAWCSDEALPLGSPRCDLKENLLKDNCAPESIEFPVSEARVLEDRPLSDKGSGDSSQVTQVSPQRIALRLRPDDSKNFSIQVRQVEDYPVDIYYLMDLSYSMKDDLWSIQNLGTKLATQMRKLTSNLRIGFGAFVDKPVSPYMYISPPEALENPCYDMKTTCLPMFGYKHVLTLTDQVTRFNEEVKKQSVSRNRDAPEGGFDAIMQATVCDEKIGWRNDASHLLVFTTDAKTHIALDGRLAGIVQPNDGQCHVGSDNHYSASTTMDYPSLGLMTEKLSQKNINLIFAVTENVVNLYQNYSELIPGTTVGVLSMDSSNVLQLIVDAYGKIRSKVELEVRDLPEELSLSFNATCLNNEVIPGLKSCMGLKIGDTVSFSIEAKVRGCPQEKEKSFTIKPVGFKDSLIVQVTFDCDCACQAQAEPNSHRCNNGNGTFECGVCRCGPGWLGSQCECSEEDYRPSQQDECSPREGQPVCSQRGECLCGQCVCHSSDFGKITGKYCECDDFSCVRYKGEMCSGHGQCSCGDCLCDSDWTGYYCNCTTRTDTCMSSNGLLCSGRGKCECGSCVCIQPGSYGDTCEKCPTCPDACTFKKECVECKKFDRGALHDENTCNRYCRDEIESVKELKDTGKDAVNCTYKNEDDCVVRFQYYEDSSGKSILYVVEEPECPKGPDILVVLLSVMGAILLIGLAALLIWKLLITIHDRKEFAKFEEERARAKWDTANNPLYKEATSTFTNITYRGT

Another test deals with DR5 (Homo sapiens, UniProt O14763).

B1: DR5-B-iRGD 114-281 (protein)
chain: VRERGPQRVAAHITGTRGRSNTLSSPNSKNEKALGRKINSWESSRSGHSFLSNLHLRNGELVIHEKGFYYIYSQTNFKFREEIKENTKNDKQMVQYIYKYTSYPDPILLMKSARNSCWSKDAEYGLYSIYQGGIFELKENDRIFVSVTNERLLDMHHEASFFGAFLVG
The Kd is a measure of binding affinity in units of concentration. Lower therefore signals higher affinity. For B1, the Kd amounted to 96.5 nM with integrin αvβ5, 1.89 nM with integrin αvβ3 and 1.66 nM with DR5.

B2: DR5-B 114-281 (protein)
chain: VRERGPQRVAAHITGTRGRSNTLSSPNSKNEKALGRKINSWESSRSGHSFLSNLHLRNGELVIHEKGFYYIYSQTNFKFREEIKENTKNDKQMVQYIYKYTSYPDPILLMKSARNSCWSKDAEYGLYSIYQGGIFELKENDRIFVSVTNERLLDMHHEASFFGAFLVG
B2: the dissociation constant (Kd) with DR5 amounted to 1.46 nM.
